Reference: the supplement of paper PMC10567573

B1: MTMR15 (parent)
chain: YVKAKKSIDKDEEFAGSSPQSSKS

Variants of: B1
Assay: protein stability index of a GFP-peptide fusion (GPS, HEK-293T) (PSI 1-6); higher = more stable
Settings: c terminus: a fixed tail appended
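Note: lentivirally expressed fusions sorted by FACS into six bins by GFP to DsRed ratio, PSI derived from sequencing read proportions per bin multiplied by bin number.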

Protein stability index of substitutions, site by site:
K23: L 3, R 3.4, E 3.55, P 3.94, N 3.41, M 3.1, A 3.44, S 3.08, C 3.5, T 3.46, G 3.06, H 3.33, V 3.85, W 2.58, Q 3.32, F 3.02, I 2.76, Y 2.76, D 3.11
P19: K 2.63, T 3.5, S 3.42, A 3.19, F 2.71, V 2.21, E 2.94, D 3.37, Y 3.02, L 2.54, N 3.09, M 3.42, W 2.42, Q 3.18, H 3.25, I 2.92, R 2.45, C 3.23, G 3.43
S21: W 2.41, M 3.31, H 3.24, A 3.23, Y 2.98, V 1.22, N 3.25, R 2.78, C 3.01, I 2.67, L 2.86, G 2.61, E 3.3, F 3.03, T 3.1, D 3.31, Q 3.34, P 2.95, K 2.92
D9: T 2.91, G 2.95, F 1.92, K 2.45, Y 2.44, I 2.73, W 1.61, E 2.9, A 2.92, M 3.01, P 2.83, L 2.76, N 2.61, V 2.77, Q 2.76, S 2.69, H 3.27, R 3.05, C 2.98
E12: N 2.64, Q 2.98, R 2.6, M 2.93, C 2.59, W 2.27, F 2.37, S 2.92, V 2.3, G 2.8, P 2.68, H 2.71, Y 1.93, K 2.7, T 3.21, L 2.78, I 2.41, D 2.69, A 2.94
K6: P 3.05, Q 3.33, N 3.25, W 2.7, Y 2.78, R 3.43, S 2.84, T 3.5, V 2.64
S24: A 3.29, C 3.13, D 2.94
A15: S 2.92, T 3.08, N 2.67, G 3.45, C 2.64, M 2.44, Q 3.16, K 2.9, F 1.91, R 2.87, E 3.31, L 3.05, V 3.42, I 3.25, P 3.06, Y 2.14, H 3.38, D 3.63
E13: Y 2.71, I 2.05, T 2.7, K 2.56, A 2.65, S 2.78, N 2.43, G 2.82, D 3.49, L 2.74, Q 3.07, R 2.77, H 3.02, P 2.81, C 2.05, F 2.09, W 1.94, V 2.31, M 2.39
F14: W 2.67, H 3.47, A 3.25, C 3.43, D 3.45, L 3.27, V 3.61, G 3.35, I 3.59, N 3.49, P 3.74, S 3.46, Y 3.5, T 3.55, K 3.29, R 3.25, Q 2.89, M 3.12, E 3.94
G16: D 3.54, C 3.22, A 3.07, Y 2.19, W 3.45, V 2.42, E 3.36, M 3.21, P 3.36, T 2.85, F 2.03, N 2.98, S 3.64, K 3.11, H 2.71, R 3.06, Q 3.21, I 2.86, L 2.85
S17: Y 1.92, W 4.48, H 3.07, A 2.8, G 3.17, F 1.79, E 3.59, N 2.9, D 3.03, P 2.79, I 2.96, K 3.21, R 2.91, Q 2.93, T 3.29, C 3.01, M 2.85, V 2.35, L 2.93
Q20: E 3.29, V 2.84, M 2.92, I 2.51, D 3.24, A 2.66, N 2.96, H 3.2, K 3.24, F 2, C 2.82, G 3.27, S 2.9, T 3.4, P 2.75, W 3.13, L 3, R 2.73, Y 2.62
I8: K 2.98, G 3.64, Q 3.3, D 3.7, C 2.83, P 3.77, N 3.33, R 2.98, A 3.18, W 3.22, L 3.07, F 2.81, M 3.22, Y 2.99, V 2.97, E 3.42, H 3.28, S 3.55, T 3.22
S22: L 2.77, H 2.77, M 3.06, I 3.18, P 3.22, G 2.97, Q 2.6, K 1.92, R 3.59, Y 2.78, V 3.36, T 2.87, C 3.08, E 3.47, D 3.58, N 2.83, W 2.27, F 2.89, A 3.1
S18: W 1.7, A 2.99, Q 2.93, T 2.64, C 2.75, L 2.85, R 3.13, D 3.18, H 2.68, K 3.04, G 3.26, N 3.9, M 2.59, I 3.66, P 3.04, Y 2.86, E 3.48, V 3.38, F 2.67
D11: F 2.48, N 2.87, K 2.64, I 2.57, V 2.72, R 2.45, W 2.31, P 2.56, L 2.46, T 2.5, C 2.71, H 2.92, G 2.88, A 2.83, Q 2.94, E 2.85, S 3.05, Y 2.77, M 2.56
S7: D 2.77, P 3.41, V 3.13, F 3.06, R 3.22, C 3.33, K 3.38, T 2.96, I 3.01, L 2.85, G 3.11, H 3.05, Q 2.91, M 3.33, A 3.15, E 3.58, Y 2.08, W 2.27, N 2.98
K10: I 3.21, H 3.61, C 3.27, V 3.24, S 3.25, P 3.55, A 3.63, W 2.96, Q 2.67, N 2.92, E 3.26, Y 2.72, T 3.28, L 3.05, D 3.42, M 3.36, G 3.28, R 3.25, F 2.26
